Measured values from patent US20250042994A1.
One block for each binder: values may come before it.

Target: cynomolgus monkey CD19 on peripheral blood B cells (cynomolgus monkey (Macaca fascicularis))
Assay: FACS, cynomolgus PBMC, CD20+ B cells

- Proportion of chimeric antibody positive cells to B cells (%) at 1 nM: 2%
- Proportion of chimeric antibody positive cells to B cells (%) at 10 nM: 3%
- Proportion of chimeric antibody positive cells to B cells (%) at 100 nM: 9%
B1: F4.180.1 (antibody, human IgG1, V domains shown)
VH: EVQLQQSAPELVKPGASVKMSCKTSGYTFTENIIHWVKQTHGKSLEWIGGINPDNGGTSYHQKFKGRTTLTIDKSSSTAYMELRSLTSDDSAVFFCARQAPLYWYFDIWGAGTTVTVSS
VL: DIVLTQSPASLAVSLGQRATISCRASESVDSYGNSLMHWFQQKPGQPPRLLIYRASNLESGIPARFSGSGSRTDFTLTITPVEADDVATYYCQQSNEDPWTFGGGTKLEIK

- Proportion of chimeric antibody positive cells to B cells (%) at 1 nM: 2%
- Proportion of chimeric antibody positive cells to B cells (%) at 10 nM: 1%
- Proportion of chimeric antibody positive cells to B cells (%) at 100 nM: 12%
B2: F3.23.10 (antibody, human IgG1, V domains shown)
VH: EFQLQQSGPELVKPGASVKISCKASDYSFTDYNMNWVKQSNGASLEWIGIINPNFGSTSYNQKFKGKATLTVDQSSSTAFMQLNSLTSEDSAVYYCARSEYYGSSGFAYWGQGTLVTVSA
VL: DVVVTQTPLSLPVSFGDQVSISCRSSQSLVNSYGNTYLSWYLHKPGQSPQLLIYGISNRFSGVPDRFSGSGSGTDFTLKITTIKPEDLGMYYCLQGTHQPWTFGGGTKLEIK
